This note sets out measurements from patent publication US5877275A, “Controlling cellular immune/inflammatory responses with β2 integrins” (The General Hospital Corporation, priority 1995, dated 1999).

This assay has as its target iC3b (Homo sapiens, UniProt P01024). As to the kind of experiment: Binding of soluble heterodimer / wild-type receptor to iC3b-sepharose (elution, SDS-PAGE, autoradiography). Particulars: detergent soluble fraction of 125I-surface-labelled neutrophils, immunoprecipitated with 44a mAb from eluate. How it is done: CD11b^1089 /CD18^699 was next tested for its ability to bind iC3b (the receptor bound by wild-type CD11b/CD18). Briefly, COS cells were transfected CD11b^1089 and CD18^699 cDNA as described above. Cells were labeled with ^35 S-methionine as described by Dana et al., J. Clin. Invest. 79:1010 (1987). Supernatants from both co-transfected COS cells (7×10^6 cells) and mock-transfected COS cells (7×10^6 cells) were concentrated to one ml using collodion bags (10,000 MW cut off). 100 μl of the concentrated supernatant were used for immunoprecipitation, and the rest of the supernatant was incubated with C3b-sepharose or iC3b-sepharose. C3b-sepharose and iC3b-sepharose was washed, eluted with 0.4 M NaCl and the eluted proteins were analyzed by SDS-PAGE and autoradiography. Binding of wild-type, membrane-bound CD11b/CD18 to iC3b-sepharose or C3b-sepharose was performed as described by Arnaout et al., (In Methods in Enzymology, DiSabato, Ed., Acad. Press Inc., Fla., 1987) using the detergent soluble fraction from 1×10^8 125 I-surface-labelled neutrophils.
FIG. 3 illustrates the results of SDS-PAGE analysis of neutrophil-derived ^125 I-surface-labeled glycoproteins eluted from C3b-sepharose and iC3b-sepharose. Eluants from C3b-sepharose (lane a) contained complement receptor type 1 (250kD) and the C3-binding regulatory protein gp45/70 (45-70 kD). […]

Chain of iC3b (P01024 23-667 limits assumed): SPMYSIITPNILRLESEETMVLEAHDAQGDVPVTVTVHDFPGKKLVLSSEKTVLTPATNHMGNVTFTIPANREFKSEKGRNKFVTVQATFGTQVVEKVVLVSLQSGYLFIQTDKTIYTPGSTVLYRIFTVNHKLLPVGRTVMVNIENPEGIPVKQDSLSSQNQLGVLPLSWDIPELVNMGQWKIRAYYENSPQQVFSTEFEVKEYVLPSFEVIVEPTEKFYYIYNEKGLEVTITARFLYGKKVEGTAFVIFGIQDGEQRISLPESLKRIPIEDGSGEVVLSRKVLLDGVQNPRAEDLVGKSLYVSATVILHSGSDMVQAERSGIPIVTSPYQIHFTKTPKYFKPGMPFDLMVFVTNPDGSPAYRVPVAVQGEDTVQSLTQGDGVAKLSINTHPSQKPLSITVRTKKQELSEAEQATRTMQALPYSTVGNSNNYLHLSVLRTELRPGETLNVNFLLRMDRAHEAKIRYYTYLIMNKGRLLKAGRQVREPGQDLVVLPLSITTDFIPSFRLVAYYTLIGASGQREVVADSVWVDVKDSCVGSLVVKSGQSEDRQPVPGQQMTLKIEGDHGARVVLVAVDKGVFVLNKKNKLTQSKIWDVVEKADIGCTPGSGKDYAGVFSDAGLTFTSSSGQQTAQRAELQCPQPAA
Chain of iC3b (P01024 749-954 limits assumed): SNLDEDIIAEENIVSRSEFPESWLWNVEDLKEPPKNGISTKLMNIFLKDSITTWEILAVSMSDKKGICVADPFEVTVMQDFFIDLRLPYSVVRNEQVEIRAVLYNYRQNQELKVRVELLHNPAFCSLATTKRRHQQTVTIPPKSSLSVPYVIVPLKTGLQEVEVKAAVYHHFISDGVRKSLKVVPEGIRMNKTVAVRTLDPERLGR
Chain of iC3b (P01024 955-1303 limits assumed): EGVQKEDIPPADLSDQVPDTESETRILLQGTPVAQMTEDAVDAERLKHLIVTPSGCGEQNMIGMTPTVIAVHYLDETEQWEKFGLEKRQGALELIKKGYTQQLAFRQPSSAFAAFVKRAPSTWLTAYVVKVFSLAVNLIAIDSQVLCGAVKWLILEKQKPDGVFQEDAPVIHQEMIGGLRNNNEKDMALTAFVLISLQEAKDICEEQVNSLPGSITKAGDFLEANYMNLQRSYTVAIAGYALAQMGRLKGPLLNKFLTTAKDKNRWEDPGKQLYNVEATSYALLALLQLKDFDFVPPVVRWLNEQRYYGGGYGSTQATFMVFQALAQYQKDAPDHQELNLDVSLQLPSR
Chain of iC3b (P01024 1321-1663 limits assumed): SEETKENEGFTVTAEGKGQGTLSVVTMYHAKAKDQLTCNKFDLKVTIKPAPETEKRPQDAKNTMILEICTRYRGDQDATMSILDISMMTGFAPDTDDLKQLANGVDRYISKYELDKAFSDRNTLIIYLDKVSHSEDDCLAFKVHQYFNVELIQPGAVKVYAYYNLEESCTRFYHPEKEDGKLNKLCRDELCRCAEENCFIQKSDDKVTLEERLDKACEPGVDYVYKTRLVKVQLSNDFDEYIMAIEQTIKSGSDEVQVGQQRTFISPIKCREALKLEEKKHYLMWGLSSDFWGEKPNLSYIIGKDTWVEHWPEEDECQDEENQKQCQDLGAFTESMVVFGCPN

Consider “CD11b/CD18: wild-type, membrane-bound CD11b/CD18 from surface-labelled neutrophils”, for which the “binding to iC3b-sepharose” value is “eluted from iC3b-sepharose”.
